Results on 16 molecules are retold here after patent publication US20130129746A1 (GlaxoSmithKline, published 2013).

B1: DOM7h-14-18 (other)
VL: DIQMTQSPSSLSASVGDRVTITCRASQWIGSQLSWYQQKPGKAPKLLIMWRSSLQSGVPSRFSGSGSGTDFTLTISSLQPEDFATYYCAQGLMKPMTFGQGTKVEIKR
notes: Vk dAb (AlbudAb)
B2: DOM7h-14-19 (other)
VL: B1 VL with T22S, K42E, L92A, M93A, K94L, M96R
notes: Vk dAb (AlbudAb)
B3: DOM7h-11-18 (other)
VL: DIQMTQSPSSLSASVGDRVTITCRASRPIGTMLSWYQQKPGKAPKLLIWFGSRLQSGVPSRFSGSGSGTDFTLTISSLQPEDFATYHCAQAGTHPTTFGQGTKVEIKR
B4: DOM7h-11-19 (other)
VL: B3 VL with W49L, H87Y, A91T
B5: DOM7h-11-65 (other)
VL: B3 VL with W49L, F50A, G51F, F83V, H87Y, R108W
notes: Vk dAb
B6: DOM7h-11-67 (other)
VL: B3 VL with W49L, F50A, G51F, H87Y, P95H, I106N, R108W
notes: Vk dAb
B7: DOM7h-11-57 (other)
VL: B3 VL with W49L, F50A, G51F, S77N, H87Y, R108W
notes: Vk dAb
B8: DOM7h-11-69 (other)
VL: B3 VL with W49L, F50A, G51F, H87Y, T93V
notes: Vk dAb
B9: DOM7h-11-56 (other)
VL: B3 VL with T22S, W49L, F50A, G51F, H87Y, R108W
notes: Vk dAb
B10: DOM7h-11-79 (other)
VL: B3 VL with W49L, F50A, G51F, H87Y, A91T, R108W
notes: Vk dAb
B11: DOM7h-11-80 (other)
VL: B3 VL with T22F, W49L, F50A, G51F, H87Y, R108W
notes: Vk dAb
B12: DOM7h-11-68 (other)
VL: B3 VL with K42E, W49L, F50A, G51F, H87Y, A91T, R108W
notes: Vk dAb
B13: DOM7h-11-86 (other)
VL: B3 VL with W49L, F50A, G51F, F83V, H87Y
notes: Vk dAb; also called DOM7h-11-65 W108R/N106I
B14: DOM7h-11-88 (other)
VL: B3 VL with W49L, F50A, G51F, H87Y, P95H, I106N
notes: Vk dAb; also called DOM7h-11-67 W108R
B15: DOM7h-11-90 (other)
VL: B3 VL with W49L, F50A, G51F, S77N, H87Y
notes: Vk dAb; also called DOM7h-11-57 W108R/N106I
B16: DOM7h-11-87 (other)
VL: B3 VL with W49L, F50A, G51F, H87Y, P95H
notes: Vk dAb; also called DOM7h-11-67 W108R/N106I

Residue numbers refer to the chain shown, from its start. Names may count otherwise.

T3 sequence (A2V9Z4 25-608): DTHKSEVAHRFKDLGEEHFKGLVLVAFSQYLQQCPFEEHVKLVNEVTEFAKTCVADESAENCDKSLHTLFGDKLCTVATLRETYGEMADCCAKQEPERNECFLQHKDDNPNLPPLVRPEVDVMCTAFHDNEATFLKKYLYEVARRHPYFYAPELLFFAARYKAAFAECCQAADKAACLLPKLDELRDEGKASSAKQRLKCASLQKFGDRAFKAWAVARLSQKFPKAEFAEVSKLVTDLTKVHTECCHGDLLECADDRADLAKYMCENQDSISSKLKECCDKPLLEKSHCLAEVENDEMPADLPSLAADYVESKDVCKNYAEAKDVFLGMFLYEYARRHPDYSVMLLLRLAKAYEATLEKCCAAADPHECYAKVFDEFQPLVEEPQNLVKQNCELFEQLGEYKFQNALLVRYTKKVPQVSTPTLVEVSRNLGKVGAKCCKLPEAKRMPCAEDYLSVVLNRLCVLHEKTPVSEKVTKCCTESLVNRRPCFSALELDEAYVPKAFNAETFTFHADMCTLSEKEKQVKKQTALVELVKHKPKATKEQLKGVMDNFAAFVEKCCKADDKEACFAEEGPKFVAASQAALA

The first assay has as its target T1, Human Serum Albumin (human, UniProt P02768 25-609).
T1 construct: mature; purified protein on CM5 chips for BIAcore; also called HSA; human SA
Put plainly: BIAcore SPR. (In general: In SPR one partner is held on a chip, and binding of the other changes the refractive index at the surface.)
Description: (§1) Binding to HSA, CSA, MSA and RSA by BIAcore was confirmed using purified protein at 3 concentrations 1 μM, 500 nM and 50 nM.
As to B1, the Kd (as a rule, the equilibrium constant for the complex coming apart) amounted to 280 nM; the koff (as a rule, the rate constant with which the complex falls apart) is 0.0339 s⁻¹; the kon – broadly, the second-order rate constant of association – came out at 189000 M⁻¹ s⁻¹.
For B2, the Kd came to 70 nM, the koff amounted to 0.0525 s⁻¹ and the kon came to 826000 M⁻¹ s⁻¹.
The like results for B3 were, in that order, 36 nM, 0.051 s⁻¹ and 3.4e+06 M⁻¹ s⁻¹.
Take B4: binding was put at a Kd of 65 nM, the koff was 0.11 s⁻¹ and the kon came out at 1.8e+06 M⁻¹ s⁻¹.

The target in another assay is T2, Rat Serum Albumin (rat, UniProt P02770 25-608).
T2 construct: mature; purified protein on CM5 chips for BIAcore; also called RSA; rat SA
T2 sequence (P02770 25-608): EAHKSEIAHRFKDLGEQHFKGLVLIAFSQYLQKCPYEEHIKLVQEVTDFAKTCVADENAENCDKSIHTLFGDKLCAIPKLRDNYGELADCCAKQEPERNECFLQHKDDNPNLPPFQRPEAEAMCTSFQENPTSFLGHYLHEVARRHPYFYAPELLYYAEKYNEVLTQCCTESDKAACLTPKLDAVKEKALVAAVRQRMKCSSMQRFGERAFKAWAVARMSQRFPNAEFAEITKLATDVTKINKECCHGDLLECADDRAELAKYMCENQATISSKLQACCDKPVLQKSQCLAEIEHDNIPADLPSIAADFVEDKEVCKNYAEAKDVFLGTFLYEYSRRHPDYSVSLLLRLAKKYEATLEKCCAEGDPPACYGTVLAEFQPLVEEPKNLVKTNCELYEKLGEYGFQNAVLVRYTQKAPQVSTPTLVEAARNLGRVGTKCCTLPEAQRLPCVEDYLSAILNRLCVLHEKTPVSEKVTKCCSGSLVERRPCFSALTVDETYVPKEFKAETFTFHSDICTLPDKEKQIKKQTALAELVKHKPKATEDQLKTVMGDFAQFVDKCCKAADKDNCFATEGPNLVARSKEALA
In words: BIAcore SPR.
Description: as §1
The molecule B1 displayed a Kd of 410 nM, a koff of 0.228 s⁻¹ and an on-rate constant (kon) of 560000 M⁻¹ s⁻¹.
The like results for B2 were, in that order, 890 nM, 0.287 s⁻¹ and 320000 M⁻¹ s⁻¹.
The like results for B3 were, in that order, 80 nM, 0.06 s⁻¹ and 1.64e+06 M⁻¹ s⁻¹.
The molecule B4 came in with a Kd of 28 nM, a koff of 0.091 s⁻¹ and a kon of 980000 M⁻¹ s⁻¹.

The next assay concerns the target T3, Cynomolgus monkey Serum Albumin (Cynomolgus monkey, UniProt A2V9Z4 25-608).
T3 construct: mature; purified protein on CM5 chips for BIAcore; also called CSA; cyno SA
In words: BIAcore SPR.
Description: as §1
Molecule B1 gave a Kd of 180 nM, a koff of 0.105 s⁻¹ and a kon of 630000 M⁻¹ s⁻¹.
The molecule B2 yielded a Kd of 225 nM, a koff of 0.156 s⁻¹ and a kon of 700000 M⁻¹ s⁻¹.
The like results for B3 were, in that order, 10000 nM, 1.36 s⁻¹ and 225000 M⁻¹ s⁻¹.
B4: the Kd was at least 10000 nM.

The next assay deals with T4, mouse serum albumin (mouse, UniProt P07724 25-608).
T4 construct: mature; purified protein on CM5 chips for BIAcore; also called MSA; mouse SA
T4 sequence (P07724 25-608): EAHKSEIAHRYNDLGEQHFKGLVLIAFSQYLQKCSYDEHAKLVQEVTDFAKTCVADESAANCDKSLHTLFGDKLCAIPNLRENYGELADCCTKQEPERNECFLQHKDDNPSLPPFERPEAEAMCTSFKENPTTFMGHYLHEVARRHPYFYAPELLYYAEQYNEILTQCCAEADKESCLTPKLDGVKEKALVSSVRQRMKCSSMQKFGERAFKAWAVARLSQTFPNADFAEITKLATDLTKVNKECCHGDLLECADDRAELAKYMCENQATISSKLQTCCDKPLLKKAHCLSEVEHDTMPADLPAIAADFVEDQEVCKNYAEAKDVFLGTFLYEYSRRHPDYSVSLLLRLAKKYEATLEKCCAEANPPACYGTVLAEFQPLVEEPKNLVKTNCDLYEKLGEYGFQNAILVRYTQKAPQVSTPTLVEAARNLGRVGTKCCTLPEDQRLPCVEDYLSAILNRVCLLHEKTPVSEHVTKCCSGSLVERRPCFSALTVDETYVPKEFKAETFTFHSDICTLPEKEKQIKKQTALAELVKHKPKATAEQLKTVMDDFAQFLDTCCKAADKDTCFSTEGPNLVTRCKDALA
Put plainly: BIAcore SPR.
Description: as §1
Consider B1, for which the Kd was determined as 65 nM, the koff stood at 0.0924 s⁻¹ and the kon was determined as 2.28e+06 M⁻¹ s⁻¹.
The like results for B2 were, in that order, 60 nM, 0.0576 s⁻¹ and 1.16e+06 M⁻¹ s⁻¹.
In turn, B3 had a Kd of 150 nM, a koff of 0.024 s⁻¹ and a kon of 440000 M⁻¹ s⁻¹.
The like results for B4 were, in that order, 100 nM, 0.037 s⁻¹ and 1.4e+06 M⁻¹ s⁻¹.

The target in the next assay is T1, Human Serum Albumin. Put plainly: BIAcore SPR. The source holds these as a separate data set.
Excerpt: (§2) MSA antigen was obtained from Sigma (essentially fatty acid free, ˜99% (agarose gel electrophoresis), lyophilized powder Cat. No. A3559) and CSA was purified from Cynomolgus serum albumin using prometic blue resin (Amersham).
B5 yielded a Ka of 5.52e+08 M⁻¹, a Kd of 1.8 nM and a kon of 1.3e+06 M⁻¹ s⁻¹.
Regarding B6, the Ka came to 1.12e+09 M⁻¹, the Kd was determined as 0.9 nM and the kon came out at 1.75e+06 M⁻¹ s⁻¹.
For B7, the Ka is 5.52e+08 M⁻¹, the Kd came to 1.8 nM and the kon turned out to be 1.22e+06 M⁻¹ s⁻¹.
B8 had a Kd of 3.2 nM.
Still for that read-out and setting: under B9 stands 1.6 nM; under B10, 5.9 nM; under B11, 2.1 nM.
Same read-out and setting: under B12 stands 33.5 nM.

The next assay addresses T2, Rat Serum Albumin. Put plainly: BIAcore SPR. The source holds these as a separate data set.
Excerpt: as §2
Consider B5, for which the Ka came out at 4.06e+07 M⁻¹; the affinity, expressed as Kd, was 24.6 nM; the on-rate constant (kon) came out at 780000 M⁻¹ s⁻¹.
The like results for B6 were, in that order, 8.6e+07 M⁻¹, 11.6 nM and 1.33e+06 M⁻¹ s⁻¹.
The like results for B7 were, in that order, 3.42e+07 M⁻¹, 29.2 nM and 566000 M⁻¹ s⁻¹.
The molecule B8 showed a Kd of 27.1 nM.
On the same count and under the same terms, the result for B9 reads 23.4 nM.
On the same count and under the same terms, the result for B10 reads 11.1 nM; that for B11, 24.1 nM; that for B12, 25.3 nM.

For another assay, the target named is T3, Cynomolgus monkey Serum Albumin. Put plainly: BIAcore SPR. The source holds these as a separate data set.
Excerpt: as §2
In turn, B5 had a Ka of 6.35e+07 M⁻¹, a Kd of 15.7 nM and a kon of 1.19e+06 M⁻¹ s⁻¹.
The like results for B6 were, in that order, 3.69e+08 M⁻¹, 2.7 nM and 2.03e+06 M⁻¹ s⁻¹.
The like results for B7 were, in that order, 1.63e+08 M⁻¹, 6.1 nM and 1.34e+06 M⁻¹ s⁻¹.
The molecule B8 gave a Kd of 5.9 nM.
With B9, the Kd is 5.2 nM.
Regarding B10, the Kd was 11.7 nM.
The molecule B11 had a Kd of 5.5 nM.
The molecule B12 had a Kd of 37.9 nM.

The target of the next assay is T4, mouse serum albumin. Put plainly: BIAcore SPR. The source holds these as a separate data set.
Excerpt: as §2
For B5, the Kd turned out to be 9.4 nM.
Same read-out and setting: the result for B6 reads 6.7 nM; that for B7, 10.9 nM; that for B8, 10 nM.
Still for that read-out and setting: under B9 stands 7.6 nM; under B10, 6.9 nM.
The same measure, in the same setting: under B11 stands 10.9 nM.
B12 displayed a Kd of 15.5 nM.

Another assay addresses T1, Human Serum Albumin. In words: BIAcore SPR. The source holds these as a separate data set.
Consider B13, for which the Ka came out at 9.51e+07 M⁻¹, binding was put at a Kd of 10.7 nM and the kon stood at 790000 M⁻¹ s⁻¹.
As to B14, the Ka was 1.51e+08 M⁻¹, the Kd is 6.71 nM and the kon is 1.14e+06 M⁻¹ s⁻¹.
B15: the Ka was 5.27e+07 M⁻¹, binding was put at a Kd of 20.2 nM, the koff was 0.0087 s⁻¹ and the kon worked out at 469000 M⁻¹ s⁻¹.
Take B16: the Ka worked out at 1.37e+08 M⁻¹, the Kd was 7.39 nM and the kon was determined as 1.17e+06 M⁻¹ s⁻¹.

Another assay addresses T2, Rat Serum Albumin. Put plainly: BIAcore SPR. The source holds these as a separate data set.
The molecule B13 displayed a Ka of 2.8e+07 M⁻¹, a Kd of 37.8 nM and a kon of 560000 M⁻¹ s⁻¹.
With B14, the Ka came out at 5.96e+07 M⁻¹, binding was put at a Kd of 16.9 nM and the kon is 846000 M⁻¹ s⁻¹.
In the case of B15, the Ka turned out to be 1.91e+07 M⁻¹; the affinity, expressed as Kd, was 53.6 nM; the kon was determined as 376000 M⁻¹ s⁻¹.
The like results for B16 were, in that order, 5.77e+07 M⁻¹, 17.6 nM and 830000 M⁻¹ s⁻¹.

The target in the next assay is T3, Cynomolgus monkey Serum Albumin. In words: BIAcore SPR. The source holds these as a separate data set.
The molecule B13 came in with a Ka of 1.08e+08 M⁻¹, a Kd of 13.4 nM and a kon of 833000 M⁻¹ s⁻¹.
The like results for B15 were, in that order, 1.01e+08 M⁻¹, 9.99 nM and 747000 M⁻¹ s⁻¹.
The like results for B16 were, in that order, 2.47e+08 M⁻¹, 4.21 nM and 1.37e+06 M⁻¹ s⁻¹.

Another assay deals with T1, Human Serum Albumin. In words: BIAcore SPR, second independent experiment.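 Also: purified domain antibodies run as analytes at 50 nM, 500 nM and 1 µM over HSA, CSA, MSA and RSA.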
Description: as §1
For the molecule B3, binding was put at a Kd of 32000 nM, the koff was 0.27 s⁻¹ and the kon is 8390 M⁻¹ s⁻¹.
Regarding B4, the affinity, expressed as Kd, was 38000 nM; the koff was determined as 0.209 s⁻¹; the kon stood at 5400 M⁻¹ s⁻¹.

In another assay the target is T2, Rat Serum Albumin. Put plainly: BIAcore SPR, second independent experiment.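 Also: purified domain antibodies run as analytes at 50 nM, 500 nM and 1 µM over HSA, CSA, MSA and RSA.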
Description: as §1
As to B3, binding was characterised by a dissociation constant (Kd) of 29000 nM, the koff came out at 0.37 s⁻¹ and the kon was 13000 M⁻¹ s⁻¹.
Turning to B4, binding was characterised by a dissociation constant (Kd) of 17000 nM, the koff was found to be 0.14 s⁻¹ and the kon is 8100 M⁻¹ s⁻¹.

In the next assay the target is T3, Cynomolgus monkey Serum Albumin. Put plainly: BIAcore SPR, second independent experiment.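 Also: purified domain antibodies run as analytes at 50 nM, 500 nM and 1 µM over HSA, CSA, MSA and RSA.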
Description: as §1
As to B3, binding was put at a Kd of 65000 nM, the koff was determined as 0.48 s⁻¹ and the kon was 7300 M⁻¹ s⁻¹.
B4 gave a Kd of 375000 nM, a koff of 0.62 s⁻¹ and a kon of 1700 M⁻¹ s⁻¹.

Another assay addresses T4, mouse serum albumin. In words: BIAcore SPR, second independent experiment.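 Also: purified domain antibodies run as analytes at 50 nM, 500 nM and 1 µM over HSA, CSA, MSA and RSA.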
Description: as §1
Molecule B3 had a Kd of 1600 nM, a koff of 0.0623 s⁻¹ and a kon of 40000 M⁻¹ s⁻¹.
The like results for B4 were, in that order, 18000 nM, 0.088 s⁻¹ and 4900 M⁻¹ s⁻¹.

A further assay addresses T2, Rat Serum Albumin. Put plainly: Albumin KD column of the PK table (repeats Table 6).
In turn, B1 yielded a Kd of 410 nM.
B2 gave a Kd of 890 nM.
